Measured values from patent publication US20180369374A1 (published 2018).
One block for each binder: values may come before it.

Key:
[1] = target: T1, mCTLA-4-His (Life Technologies) (mouse, UniProt P09793 36-162, limits assumed); assay: ELISA, HeLa supernatant on mCTLA-4-His-coated plates, HRP-goat anti-mouse IgG Fc detection
T1 construct: Bought reagent coated on ELISA plates; also called CTLA-4-coated plates; not shown: His tag
Method: The following mRNAs encoding anti-CTLA-4 antibody heavy and light chains (HC and LC mRNAs) were designed and assayed for expression by measuring both CTLA-4-bound antibody and total IgG produced (FIG. 1): (1) 9D9 VH:mIgG2a (IgG2a^a allele) plus 9D9 VL:mIgGk; and (2) 9D9 VH:mIgG2b plus 9D9 VL:mIgGk. HeLa cells were transfected in 6-well plates with mRNA formulated in Lipofectamine 2000. Cell supernatants were harvested at 18 hours post transfection. Supernatants were assayed for binding to CTLA-4-coated plates (mCTLA-4-His (Life Technologies)) and detection was with HRP-Goat anti-mouse IgG Fc, 1:10000 (JIR). Purified 9D9 antibody (BioXcell) was used for the standard curve in the CTLA-4-binding ELISA. The Mouse IgG total ELISA Ready-SET-Go® assay (eBioscience) was used for quantitating total mouse IgG, with a mouse IgG internal standard.

[2] = target: T2, OX40R on mouse CD4+ T-cells (mouse, UniProt P47741 20-272); assay: cell-based or functional assay
T2 sequence (looked up): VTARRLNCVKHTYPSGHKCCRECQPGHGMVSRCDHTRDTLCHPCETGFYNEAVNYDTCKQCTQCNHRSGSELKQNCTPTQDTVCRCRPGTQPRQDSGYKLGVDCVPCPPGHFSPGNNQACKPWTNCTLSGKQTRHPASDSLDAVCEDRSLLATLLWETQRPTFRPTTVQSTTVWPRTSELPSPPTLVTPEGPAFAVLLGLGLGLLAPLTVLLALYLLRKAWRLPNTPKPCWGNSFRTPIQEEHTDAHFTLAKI

binding result [1]: binds
B1: 9D9 IgG2a antibody (9D9 VH:mIgG2a (IgG2a^a allele) plus 9D9 VL:mIgGk), mRNA-encoded (antibody)
heavy: EAKLQESGPVLVKPGASVKMSCKASGYTFTDYYMNWVKQSHGKSLEWIGVINPYNGDTSYNQKFKGKATLTVDKSSSTAYMELNSLTSEDSAVYYCARYYGSWFAYWGQGTLITVSTAKTTAPSVYPLAPVCGDTTGSSVTLGCLVKGYFPEPVTLTWNSGSLSSGVHTFPAVLQSDLYTLSSSVTVTSSTWPSQSITCNVAHPASSTKVDKKIEPRGPTIKPCPPCKCPAPNLLGGPSVFIFPPKIKDVLMISLSPIVTCVVVDVSEDDPDVQISWFVNNVEVHTAQTQTHREDYNSTLRVVSALPIQHQDWMSGKEFKCKVNNKDLPAPIERTISKPKGSVRAPQVYVLPPPEEEMTKKQVTLTCMVTDFMPEDIYVEWTNNGKTELNYKNTEPVLDSDGSYFMYSKLRVEKKNWVERNSYSCSVVHEGLHNHHTTKSFSRTPGK
light: DIVMTQTTLSLPVSLGDQASISCRSSQSIVHSNGNTYLEWYLQKPGQSPKLLIYKVSNRFSGVPDRFSGSGSGTDFTLKISRVEAEDLGVYYCFQGSHVPYTFGGGTKLEIKRADAAPTVSIFPPSSEQLTSGGASVVCFLNNFYPKDINVKWKIDGSERQNGVLNSWTDQDSKDSTYSMSSTLTLTKDEYERHNSYTCEATHKTSTSPIVKSFNRNEC
notes: Full heavy and light chains expressed from mRNA in HeLa cells, tested as cell supernatant; The entries are whole ORFs and may include a signal peptide; also called HC-2Aa:LC; 9D9 2a

binding result [1]: binds
B2: 9D9 IgG2b antibody (9D9 VH:mIgG2b plus 9D9 VL:mIgGk), mRNA-encoded (antibody)
heavy: EAKLQESGPVLVKPGASVKMSCKASGYTFTDYYMNWVKQSHGKSLEWIGVINPYNGDTSYNQKFKGKATLTVDKSSSTAYMELNSLTSEDSAVYYCARYYGSWFAYWGQGTLITVSTAKTTPPSVYPLAPGCGDTTGSSVTLGCLVKGYFPESVTVTWNSGSLSSSVHTFPALLQSGLYTMSSSVTVPSSTWPSQTVTCSVAHPASSTTVDKKLEPSGPISTINPCPPCKECHKCPAPNLEGGPSVFIFPPNIKDVLMISLTPKVTCVVVDVSEDDPDVQISWFVNNVEVHTAQTQTHREDYNSTIRVVSTLPIQHQDWMSGKEFKCKVNNKDLPSPIERTISKIKGLVRAPQVYILPPPAEQLSRKDVSLTCLVVGFNPGDISVEWTSNGHTEENYKDTAPVLDSDGSYFIYSKLNMKTSKWEKTDSFSCNVRHEGLKNYYLKKTISRSPGK
light: B1 light
notes: Full heavy and light chains expressed from mRNA in HeLa cells, tested as cell supernatant; The entries are whole ORFs and may include a signal peptide; also called HC-2B:LC; 9D9 2b

mouse IL-2 production by CD4+ T-cells co-cultured with OX40L-expressing B16F10 cells (IL-2 ELISA), against mock-treated or non-translated mRNA control [2]: ~2 fold
B3: murine OX40L polypeptide expressed from mOX40L_miR122 on B16F10 cells (ligand)
chain: MEGEGVQPLDENLENGSRPRFKWKKTLRLVVSGIKGAGMLLCFIYVCLQLSSSPAKDPPIQRLRGAVTRCEDGQLFISSYKNEYQTMEVQNNSVVIKCDGLYIIYLKGSFFQEVKIDLHFREDHNPISIPMLNDGRRIVFTVVASLAFKDKVYLTVNAPDTLCEHLQINDGELIVVQLTPGYCAPEGSYHSTVNQVPL
